Results published in patent publication US20190367631A1.

Assays:
[1] = molecular target: endogenously expressed human MSR1 on PMA-treated THP-1 cells (human) (UniProt P21757); assay: ECL cell binding, PMA-treated THP-1 cells, 11 nM
[2] = molecular target: endogenously expressed human MSR1 on PMA-treated THP-1 cells (human) (UniProt P21757); assay: cell-based or functional assay
[3] = molecular target: endogenously expressed human MSR1 on PMA-treated THP-1 cells (human) (UniProt P21757); assay: confocal imaging, differentiated THP-1 cells, Alexa 488 secondary

Chain of endogenously expressed human MSR1 on PMA-treated THP-1 cells (human) (P21757 whole entry): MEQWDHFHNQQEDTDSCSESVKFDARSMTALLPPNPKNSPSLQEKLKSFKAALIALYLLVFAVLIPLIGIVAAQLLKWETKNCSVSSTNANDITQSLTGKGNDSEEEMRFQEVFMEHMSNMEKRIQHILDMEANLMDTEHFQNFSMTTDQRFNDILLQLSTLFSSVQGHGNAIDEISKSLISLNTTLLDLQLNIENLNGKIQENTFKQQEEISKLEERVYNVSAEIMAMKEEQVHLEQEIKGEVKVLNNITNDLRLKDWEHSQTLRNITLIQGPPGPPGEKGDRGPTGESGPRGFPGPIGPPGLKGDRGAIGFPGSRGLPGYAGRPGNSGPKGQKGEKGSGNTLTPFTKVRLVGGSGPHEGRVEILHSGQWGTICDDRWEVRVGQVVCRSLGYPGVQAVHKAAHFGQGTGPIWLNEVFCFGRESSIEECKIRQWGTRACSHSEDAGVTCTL

Binder	ratio of binding signal (RLU) to isotype control [1] [fold]	% Internalization [2] [%]	Total Internalized RFU [2] [RFU]	Total Binding at 4° C. (RFU) [3] [RFU]	Total Binding at 37° C. (RFU) [3] [RFU]
H1H27729P-N297Q (antibody, human IgG1, V domains shown) VH: QVQLVESGGGLVKPGGSLRLSCAASGFIFSDYYMSWIRQAPGKGLEWVSYISSSGTTIYGDSVKGRFTMSRDNAKNSLYLQMNSLRAEDTAVYYCARNYALFDYWGQGTLVTVSS VL: DIQMTQSPSSLSASVGDRVTITCQASQDISKYLNWYQQKPGKAPKLLIYYTSNLETGVPSRFSGSGSGTDFTFTISSLQPEDIATYYCHQSDYLPFTFGPGTKVDIKR	8	57	3.76e+06	1.93e+06	6.61e+06
H1H21234N-N297Q (antibody, human IgG1, V domains shown) VH: QVQLQESGPGLVKPSETLSLTCTVTGGSISRNYWSWIRQPPGKGLEWIGYIYYSGSIDYNPSLKSRVTISVDTSKNQFSLKLSSMTAADTAVYYCARDRWNWKYGMDVWGQGTTVIVSS VL: EIVLTQSPGTLSLSPGERATLSCRASQTVRNNYLAWYHQKPGQAPRLLIYGASSRATGIPDRFSGSGSGTDFTLTISRLEPEDFTVYYCHQYGNSPWTFGQGTKMEIKR	25	13.3	723000	1.95e+06	5.45e+06
H1H21234N (antibody, human IgG1, V domains shown) VH: QVQLQESGPGLVKPSETLSLTCTVTGGSISRNYWSWIRQPPGKGLEWIGYIYYSGSIDYNPSLKSRVTISVDTSKNQFSLKLSSMTAADTAVYYCARDRWNWKYGMDVWGQGTTVIVSS VL: EIVLTQSPGTLSLSPGERATLSCRASQTVRNNYLAWYHQKPGQAPRLLIYGASSRATGIPDRFSGSGSGTDFTLTISRLEPEDFTVYYCHQYGNSPWTFGQGTKMEIKR	18				
H1H21227N-N297Q (antibody, human IgG1, V domains shown) VH: QVQLVQSGAEVKKPGASVKVSCKVSGYTLTELSIHWVRQVPGKGLEWMGGFDPEEGETIFAQEFRDRVTLTEDTSPDTAYMELSSLKSEDAAVYYCTTPRYCNNGICYDYWGQGTLVTVSS VL: DIQMTQSPSSLSASVGDRVTITCRASQSISNYLNWYQQKPGKAPKLLIYTASSLQSGVPSRFSGSGSGTDFTLTISSLQTEDFATYYCQQSYSNFPITFGQGTRLEIKR	5	78.5	3.23e+06	1.8e+06	4.11e+06
H1H21227N-N297D (antibody, human IgG1, V domains shown) VH: QVQLVQSGAEVKKPGASVKVSCKVSGYTLTELSIHWVRQVPGKGLEWMGGFDPEEGETIFAQEFRDRVTLTEDTSPDTAYMELSSLKSEDAAVYYCTTPRYCNNGICYDYWGQGTLVTVSS VL: DIQMTQSPSSLSASVGDRVTITCRASQSISNYLNWYQQKPGKAPKLLIYTASSLQSGVPSRFSGSGSGTDFTLTISSLQTEDFATYYCQQSYSNFPITFGQGTRLEIKR	6				
H1H21231N (antibody, human IgG1, V domains shown) VH: EVQLVESGGGLVQPGGSLRLSCAASGFTFSDHYMDWVRQAPGKGLEWVGRTRNKANSHTTEYTASVTGRFTISRDDSRNSLYLQMNSLKTEDTAVYYCVRAGIIGTLFDYWGQGTLVTVSS VL: DIQMTQFPSSLSASVGDRVTITCRASQSISSFLNWFQQKPGKAPKFLIYAASSLQSGVPSRFSGSGSGTDFTLTISSLQPEDFATYYCQQSYSSPPITFGQGTRLEIKR	42				
H1H21231N-N297Q (antibody, human IgG1, V domains shown) VH: EVQLVESGGGLVQPGGSLRLSCAASGFTFSDHYMDWVRQAPGKGLEWVGRTRNKANSHTTEYTASVTGRFTISRDDSRNSLYLQMNSLKTEDTAVYYCVRAGIIGTLFDYWGQGTLVTVSS VL: DIQMTQFPSSLSASVGDRVTITCRASQSISSFLNWFQQKPGKAPKFLIYAASSLQSGVPSRFSGSGSGTDFTLTISSLQPEDFATYYCQQSYSSPPITFGQGTRLEIKR	45				
H1H21227N (antibody, human IgG1, V domains shown) VH: QVQLVQSGAEVKKPGASVKVSCKVSGYTLTELSIHWVRQVPGKGLEWMGGFDPEEGETIFAQEFRDRVTLTEDTSPDTAYMELSSLKSEDAAVYYCTTPRYCNNGICYDYWGQGTLVTVSS VL: DIQMTQSPSSLSASVGDRVTITCRASQSISNYLNWYQQKPGKAPKLLIYTASSLQSGVPSRFSGSGSGTDFTLTISSLQTEDFATYYCQQSYSNFPITFGQGTRLEIKR	7				
H1H27739P-N297Q (antibody, human IgG1, V domains shown) VH: EVQLVESGGGLVQPGGSLRLSCTASGFTFSSYAMSWVRQAPGKGLEWVSAISGTGSSTYFTDSVKGRFAISRDNSKNTLYLQMNSLRAEDTAVYYCAKDGEWLSTVTLFDYWGQGTLVTVSS VL: EIVMTQSPATLSVSPGERATLSCRASQSVSSNLAWYQQKPGQAPRLLIYGASTRATGIPARFSGSGSGTDFTLTISSLQSEDFALYYCQQYFIWPPHPTFGPGTKVDIKR	9	71.6	4.02e+06	3.7e+06	5.61e+06
H1H27734P-N297Q (antibody, human IgG1, V domains shown) VH: EVQLVESRGGLVQPGGSLRLSCAASGFTFSSYAMSWVRQAPGKGLEWVSAISGSGGSTFYADSVKGRFTISRDNSKNTVYLQMNSLRAEDTAVYYCAKALVLRFLEWLGDYWGQGTLVTVSS VL: DIQMTQSPSTLSASVGDRVTITCRASQSISSWLAWFQQKPGKAPKLLIYKASSLESGVPSRFSGSGSGTEFTLTISSLQPDDFATYYCQQYKSYWTFGQGTKVEIKR	21		737000	483000	1.15e+06

Results, then the binder that gave them:

ratio of binding signal (RLU) to isotype control [1] [fold]	% Internalization [2] [%]	Total Internalized RFU [2] [RFU]	Total Binding at 4° C. (RFU) [3] [RFU]	Total Binding at 37° C. (RFU) [3] [RFU]	Binder
56					H2aM21229N (antibody, mouse IgG2a, V domains shown) VH: EVQLVESGGGLVKPGGSLRLSCAASGFTFSRYSMNWVRQAPGKGLEWVSSISSSSSYIYYGDTVKGRFTISRDNAKKSLYLQMNSLRAEDTAVYYCVRDRGQLVLYFDYWGQGTLVTVSS VL: DIQMTQSPASLSTSIRDRVTITCRASLSISSFLNWFQQRPGKAPKLLIYVASNLQSGVPSRFSDSGSGTDFTLTISSLQPEDFATYYCQQNYSTPPITFGQGTRLEIK
13	58.2	3.44e+06	2.52e+06	5.92e+06	H1H27747P-N297Q (antibody, human IgG1, V domains shown) VH: QVQLVESGGAVVQPGRSLRLSCAASGFTFSYYGMHWVRQAPGKGLEWVAVISYDGSKKYYADSVKGRFTISRDNSKNTLYLQMNSLRAEDTAVYYCAKDLTVDFYYGMDVWGQGTTVTVSS VL: DIQMTQSPSSVSASVGDRVTITCRASQGISSWLAWYQQKPGKAPKLLIYATSSLQSGAPSRFSGSGSGTDFTLTISSLQPEDFATYFCQQANSFPYTFGQGTKLEIKR
66	90	6.45e+06	3.08e+06	7.16e+06	H1H27754P-N297Q (antibody, human IgG1, V domains shown) VH: EVQLVESGGGLVQPGGSLRLSCAASGFTFRTYAMTWVRQAPGKGLDWVSAITGDGGNTYYADSVKGRFTISRDNSKNTLYLQMNSLRAEDTAIYYCAKDQRFSFALYYFDYWGQGTLVTVSS VL: DIQMTQSPSSVSASVGDRVTITCRASQGISSWLAWYQQKPGNAPKLLIYAAFSLQSGVPSRFSGSGSGTDFTLTISSLQPEDFATYYCQQANNFPWTFGQGTKVEIKR
8					H2aM25695N (antibody, mouse IgG2a, V domains shown) VH: QVQLQESGPGLVKPSETLSLTCTVTGGSISRNYWSWIRQPPGKGLEWIGYIYYSGSINYNPSLKSRVTISVDMSKNQFSLKLNSVTAADTAVYYCARDRWNWKYGMDVWGQGTTVIVSS VL: EIVLTQSPGTLSLSPGERATLSCRASQTVRNSYLAWYHQKPGQAPRLLIYGASSRATGIPDRFSGSGSGTDFTLTISRLEPEDFAVYYCQQYGSSYWTFGQGTKMEIKR
25					H2aM25690N (antibody, mouse IgG2a, V domains shown) VH: EVQLLESGGGLVQPGGSLRLSCAASGFTFSNYAMTWVRQAPGTGLEWVSAISGRGSNTYYTDSVKGRFTISRDNSKNMLYLQMNSLRAEDTASYYCAKDRFTTVGNWFDPWGQGTLVTVSS VL: DIQMTQSPSSLSASVGDRVTITCRASQSISSYLNWYQQKPGKAPKLLIYAASSLQNGVPSRFSGSGSGTDFTLTISSLQPEDFATYYCQQSYSSLPITFGQGTRLDIKR
3					H2aM25700N (antibody, mouse IgG2a, V domains shown) VH: QVQLVQSGSEVKKPGASVKVSCKVSGYTLTELSIHWVRQAPGKGLEWMGGFDPEDGETIYAQKFRGRVTMTEDISPDTAYMELSSLRSEDTAVYYCATPRYCNNGICYDYWGQGTLVTVSS VL: DIQMTQSPSSLSASIGDRVTITCRASQSISSYLNWYQQKPGKAPMLLIYAASSLQSGVPSRFSGSGSGTDFTLTISSLQTEDFATYYCQQSYSTPPITFGQGTRLEIKR
